Laboratory results: patent US7132274B2, “Method for identifying modulators of CLK-1 and UbiF activity” (priority 2003, dated 2006)
Numbering of substitutions follows the chain as printed. Names may count otherwise.

B1: CDB 717: C. elegans CLK-1 variant, mutation Y119A (protein, UniProt P48376 9-187, looked up, variant Y119A)
NADPH-dependent …: AHTAASRQALIEKIIRVDHAGELGADRIYAGQLAVLQGSSVGSVIKKMWDEEKEHLDTMERLAAKHNVPHTVFSPVFSVAAYALGVGSALLGKEGAMACTIAVEELIGQHANDQLKELLADDPETHKELLKILTRLRDEELHHHDTGVEHDGMKAPAYSALKWIIQTGCKGAIAIAEKI
B2: CDB 715: C. elegans CLK-1 variant, mutation H151A (protein, UniProt P48376 9-187, looked up, variant H151A)
NADPH-dependent …: B1 NADPH-dependent … with A111Y, H143A
B3: CDB 698: C. elegans CLK-1 variant, mutation I115H (protein, UniProt P48376 9-187, looked up, variant I115H)
NADPH-dependent …: B1 NADPH-dependent … with I107H, A111Y
B4: CDB 721: C. elegans CLK-1 variant, mutation Y37A (protein, UniProt P48376 9-187, looked up, variant Y37A)
NADPH-dependent …: B1 NADPH-dependent … with Y29A, A111Y
B5: CDB 716: C. elegans CLK-1 variant, mutation H118A (protein, UniProt P48376 9-187, looked up, variant H118A)
NADPH-dependent …: B1 NADPH-dependent … with H110A, A111Y
B6: CDB 689: C. elegans CLK-1 variant, mutation C107A (protein, UniProt P48376 9-187, looked up, variant C107A)
NADPH-dependent …: B1 NADPH-dependent … with C99A, A111Y
B7: CDB 723: C. elegans CLK-1 variant, mutation E148K/L149N (protein, UniProt P48376 9-187, looked up, variant E148K L149N)
NADPH-dependent …: B1 NADPH-dependent … with A111Y, E140K, L141N
B8: CDB 710: C. elegans CLK-1 variant, mutation Y90G (protein, UniProt P48376 9-187, looked up, variant Y90G)
NADPH-dependent …: B1 NADPH-dependent … with Y82G, A111Y
B9: CDB 691: C. elegans CLK-1 variant, mutation E147K (protein, UniProt P48376 9-187, looked up, variant E147K)
NADPH-dependent …: B1 NADPH-dependent … with A111Y, E139K
B10: CDB 699: C. elegans CLK-1 variant, mutation E148A (protein, UniProt P48376 9-187, looked up, variant E148A)
NADPH-dependent …: B1 NADPH-dependent … with A111Y, E140A
B11: CDB 709: C. elegans CLK-1 variant, mutation Q174A (protein, UniProt P48376 9-187, looked up, variant Q174A)
NADPH-dependent …: B1 NADPH-dependent … with A111Y, Q166A
B12: CDB 690: C. elegans CLK-1 variant, mutation C177A (protein, UniProt P48376 9-187, looked up, variant C177A)
NADPH-dependent …: B1 NADPH-dependent … with A111Y, C169A
B13: CDB 720: C. elegans CLK-1 variant, mutation E30A (protein, UniProt P48376 9-187, looked up, variant E30A)
NADPH-dependent …: B1 NADPH-dependent … with E22A, A111Y
B14: CDB 711: C. elegans CLK-1 variant, mutation S51P (protein, UniProt P48376 9-187, looked up, variant S51P)
NADPH-dependent …: B1 NADPH-dependent … with S43P, A111Y
B15: CDB 719: C. elegans CLK-1 variant, mutation H63A (protein, UniProt P48376 9-187, looked up, variant H63A)
NADPH-dependent …: B1 NADPH-dependent … with H55A, A111Y
B16: CDB 726: C. elegans CLK-1 variant, mutation G32D (protein, UniProt P48376 9-187, looked up, variant G32D)
NADPH-dependent …: B1 NADPH-dependent … with G24D, A111Y
B17: CDB 694: C. elegans CLK-1 variant, mutation E148K (protein, UniProt P48376 9-187, looked up, variant E148K)
NADPH-dependent …: B1 NADPH-dependent … with A111Y, E140K
B18: CDB 725: C. elegans CLK-1 variant, mutation E147A/H151Q, less active than wild type (protein, UniProt P48376 9-187, looked up, variant E147A H151Q)
NADPH-dependent …: B1 NADPH-dependent … with A111Y, E139A, H143Q
B19: CDB 728: C. elegans CLK-1 variant, mutation E112A (protein, UniProt P48376 9-187, looked up, variant E112A)
NADPH-dependent …: B1 NADPH-dependent … with E104A, A111Y
B20: CDB 700: C. elegans CLK-1 variant, mutation C107A/C177A (protein, UniProt P48376 9-187, looked up, variant C107A C177A)
NADPH-dependent …: B1 NADPH-dependent … with C99A, A111Y, C169A
B21: CDB 707: C. elegans CLK-1 variant, mutation E147A (protein, UniProt P48376 9-187, looked up, variant E147A)
NADPH-dependent …: B1 NADPH-dependent … with A111Y, E139A
B22: CDB 724: C. elegans CLK-1 variant, mutation E62L (protein, UniProt P48376 9-187, looked up, variant E62L)
NADPH-dependent …: B1 NADPH-dependent … with E54L, A111Y
B23: C. elegans clk-1: wild-type C. elegans CLK-1 (DMQ hydroxylase) expressed from pET16 in JF496 (protein)
chain: MFRVITRGAHTAASRQALIEKIIRVDHAGELGADRIYAGQLAVLQGSSVGSVIKKMWDEEKEHLDTMERLAAKHNVPHTVFSPVFSVAAYALGVGSALLGKEGAMACTIAVEELIGQHYNDQLKELLADDPETHKELLKILTRLRDEELHHHDTGVEHDGMKAPAYSALKWIIQTGCKGAIAIAEKI
modifications: C. elegans; C. elegans CLK-1
notes: wild-type C. elegans CLK-1 (DMQ hydroxylase) expressed from pET16 in JF496
B24: hclk-1: human clk-1 cDNA expressed in JF496 (protein, listed as Homo sapiens)
chain: MSCAGAAAAPRLWRLRPGARRSLSAYGRRTSVRFRSSGMTLDNISRAAVDRIIRVDHAGEYGANRIYAGQMAVLGRTSVGPVIQKMWDQEKDHLKKFNELMVTFRVRPTVLMPLWNVLGFALGAGTALLGKEGAMACTVAVEESIAHHYNNQIRTLMEEDPEKYEELLQLIKKFRDEELEHHDIGLDHDAELAPAYAVLKSIIQAGCRVAIYLSERL
modifications: Human CLK-1
notes: human clk-1 cDNA expressed in JF496
B25: mclk-1: mouse clk-1 cDNA expressed in JF496 (protein, listed as Mus musculus)
chain: MSAAGAIAAASVGRLRTGVRRPFSEYGRGLIIRCHSSGMTLDNINRAAVDRIIRVDHAGEYGANRIYAGQMAVLGRTSVGPVIQKMWDQEKNHLKKFNELMIAFRVRPTVLMPLWNVAGFALGAGTALLGKEGAMACTVAVEESIANHYNNQIRMLMEEDPEKYEELLQVIKQFRDEELEHHDTGLDHDAELAPAYALLKRIIQAGCSAAIYLSERF
modifications: Mouse CLK-1
notes: mouse clk-1 cDNA expressed in JF496
B26: E. coli UbiF: E. coli UbiF expressed from a plasmid in JF496 (protein)
chain: MTNQPTEIAIVGGGMVGGALALGLAQHGFAVTVIEHAEPAPFVADSQPDVRISAISAASVSLLKGLGVWDAVQAMRCHPYRRLETWEWETAHVVFDAAELKLPLLGYMVENTVLQQALWQALEAHPKVTLRVPGSLIALHRHDDLQELELKGGEVIRAKLVIGADGANSQVRQMAGIGVHAWQYAQSCMLISVQCENDPGDSTWQQFTPDGPRAFLPLFDNWASLVWYDSPARIRQLQNMNMAQLQAEIAKHFPSRLGYVTPLAAGAFPLTRRHALQYVQPGLALVGDAAHTIHPLAGQGVNLGYRDVDALIDVLVNARSYGEAWASYPVLKRYQMRRMADNFIMQSGMDLFYAGFSNNLPPLRFMRNLGLMAAERAGVLKRQALKYALGL
modifications: E. coli; ubiF wildtype allele
notes: E. coli UbiF expressed from a plasmid in JF496

What follows are molecules tested on E. coli JF496 (ubiF411) (assay: JF496 complementation (growth rescue) assay). Conditions: C. elegans CLK-1 variants expressed in JF496; growth rate relative to wild type CLK-1.
Assay type: cell-based
Description: JF496 is useful for complementation assays using eukaryotic clk-1. As with all other ubi mutants, JF496 has a weak growth in liquid culture, and cannot use succinate as a unique carbon source. These characteristics were used to develop a gain-of-function assay, where JF496 was transformed with a eukaryotic clk-1 (here from C. elegans) and then wild-type growth was identified. Transgenic E. coli ubiF (Kwon et al., 2000 FEMS Microbiol Lett, 186, 157–161), and clk-1 from proteobacteria (Stenmark et al., 2001 J Biol Chem, 276, 33297–33300) have been tested in JF496.
Growth conditions—For complementation assays, plasmids are freshly transformed by electroporation into E. coli JF496 ubiF(DE3) and grown overnight at 37° C. in 5 mL LB with 50 μg/mL ampicillin. The cultures are diluted 1/10 and OD600 measured. A bacterial volume corresponding to an OD600 of 0.03 in 5 mL is taken, centrifuged and resuspended in 100 μl of M9 medium. It is then added into 5 mL M9 containing 1 mM MgSO4, 20 μM CaCl2, 0.5 μg/mL thiamine, 0.12% casamino acids, 40 μg/mL D-L-methionine, 100 μg/mL L-asparagine, trace metals and 50 μg/mL ampicillin. This medium is supplemented with 0.5% glucose or 0.5% succinate. E. coli JF496 is grown at 37° C. for 8 hours. Samples (700-μL) are taken at 2-hour intervals and the OD600 is measured in order to determine the growth rate.
Growth conditions—as described above in Section 6.1
A selection of CLK-1 variants were constructed by site-directed mutagenesis and cloned into the JF496 system to assess their enzymatic activity relative to the wild type. The respective strains of JF496-clk-1 variants were cultured as described and the growth rate of each were measured. The results as shown in Table 4 indicate that certain residues and regions are not tolerant of amino acid substitution (amino acid substitution is indicated by one-letter codes).

Molecule	Activity in JF496 system
B1	Inactive
B2	Inactive
B3	Inactive
B4	Active
B5	Inactive
B6	Active
B7	Inactive
B8	Active
B9	Active
B10	Inactive
B11	Active
B12	Active
B13	Inactive
B14	Active
B15	Inactive
B16	Inactive
B17	Inactive
B18	Partially active
B19	Inactive
B20	Active
B21	Active
B22	Active

Same assay, conditions: FIG. 6; JF496 transformed with C. elegans clk-1

Molecule	rescue of JF496 growth defect
B23	able to rescue the JF496 growth defect

Same assay, conditions: JF496; M9 buffer containing 0.5% glucose

Molecule	rescuing capacity
B24	lower than that of mclk-1 or C. elegans clk-1

Same assay, conditions: JF496; M9 buffer containing 0.5% glucose; compared with vector pET16 control

Molecule	rescue of bacterial growth under selective condition
B25	rescues bacterial growth
B24	rescues bacterial growth
B26	rescued bacterial growth
